Several values for one entry are separate records, joined by “and”; a condition that tells them apart may be missing. Equal values may be shown once.
Columns and labels:
[1] = biological target: T1, human platelet membrane glycoprotein (GP)IIb/IIIa (fibrinogen receptor, integrin αIIbβ3) on human platelets (human, UniProt P08514 32-1039; P05106 27-788); experiment: Scatchard analysis of CN binding to unactivated human platelets
T1 construct: whole, on cells

[2] = biological target: T1, human platelet membrane glycoprotein …
[3] = biological target: canine platelet (GP)IIb/IIIa on canine platelets (canine, UniProt Q9TUN8 32-1036; A0A8I3PMU9 158-919)

B1: contortrostatin (CN), homodimeric disintegrin purified from Agkistrodon contortrix contortrix (south (ligand)
chain: DAPANPCCDAATCKLTTGSQCADGLCCDQCKFMKEGTVCRRARGDDLDDYCNGISAGCPRNPFHA
notes: also called CTTX
Kd [1]: 37 nM | IC50 [2]: 25 nM and 0.4 µg/mL | IC50 [3]: 0.24 µg/mL
